System: Escherichia coli TOP10
Experiment: shrunken log2 fold change of peptide-encoding DNA abundance (4.5 h post-induction vs induction); higher = less antimicrobial activity (less host growth inhibition)
Conditions: time post-induction: 4.5 h; library: site-saturation at positions 5, 18, 19, 20
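Note: peptides expressed intracellularly from a pBAD plasmid library in pooled LB shake-flask culture, induced with 0.3% L-arabinose, DNA abundance read by NGS, three biological replicates, DESeq2 with apeglm shrinkage.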

Row | Sequence | shrunken log2 fold change
1 | RRIRSRPPRLPRPRPRPDPTPRP | 0.035
2 | RRIRERPPRLPRPRPRPNASPRP | -0.0996
3 | RRIRARPPRLPRPRPRPDFIPRP | -0.0493
4 | RRIRNRPPRLPRPRPRPCWPPRP | 0.274
5 | RRIRIRPPRLPRPRPRPGNKPRP | -0.569
6 | RRIRHRPPRLPRPRPRPNCHPRP | -0.444
7 | RRIRHRPPRLPRPRPRPIQTPRP | -0.338
8 | RRIRGRPPRLPRPRPRPGYEPRP | 0.365
9 | RRIRTRPPRLPRPRPRPQFIPRP | -0.07
10 | RRIRKRPPRLPRPRPRPTLEPRP | 0.132
11 | RRIRNRPPRLPRPRPRPYRNPRP | -0.0239
12 | RRIRPRPPRLPRPRPRPPGMPRP | 0.501
13 | RRIRYRPPRLPRPRPRPVTEPRP | -0.134
14 | RRIRDRPPRLPRPRPRPKRNPRP | 0.136
15 | RRIRPRPPRLPRPRPRPQCYPRP | -0.44
16 | RRIRHRPPRLPRPRPRPSVTPRP | -0.453
17 | RRIRHRPPRLPRPRPRPCWSPRP | -0.166
18 | RRIRGRPPRLPRPRPRPAICPRP | 0.555
19 | RRIRLRPPRLPRPRPRPERGPRP | 0.538
20 | RRIRFRPPRLPRPRPRPEVFPRP | 0.181
21 | RRIRLRPPRLPRPRPRPSSRPRP | -0.425
22 | RRIRYRPPRLPRPRPRPELLPRP | -0.157
23 | RRIRDRPPRLPRPRPRPRRTPRP | 0.186
24 | RRIRMRPPRLPRPRPRPHDEPRP | -0.0018
25 | RRIRARPPRLPRPRPRPVLVPRP | 0.0133

Row | Sequence | shrunken log2 fold change
26 | RRIRERPPRLPRPRPRPANMPRP | -0.19
27 | RRIRGRPPRLPRPRPRPTQGPRP | 1.14
28 | RRIRMRPPRLPRPRPRPQWYPRP | -0.161
29 | RRIRGRPPRLPRPRPRPKNFPRP | 0.0583
30 | RRIRRRPPRLPRPRPRPTEYPRP | 0.0398
31 | RRIRGRPPRLPRPRPRPCAAPRP | 1.89
32 | RRIRIRPPRLPRPRPRPCIHPRP | -0.488
33 | RRIRPRPPRLPRPRPRPDVHPRP | -0.0196
34 | RRIRLRPPRLPRPRPRPRQCPRP | 0.283
35 | RRIRPRPPRLPRPRPRPYWVPRP | -0.284
36 | RRIRRRPPRLPRPRPRPKNQPRP | 0.173
37 | RRIRDRPPRLPRPRPRPRQKPRP | 0.56
38 | RRIRRRPPRLPRPRPRPQMKPRP | -0.0643
39 | RRIRVRPPRLPRPRPRPLCRPRP | -0.149
40 | RRIRNRPPRLPRPRPRPWPFPRP | 0.0256
41 | RRIRMRPPRLPRPRPRPQENPRP | 0.48
42 | RRIRMRPPRLPRPRPRPSMRPRP | 0.429
43 | RRIRMRPPRLPRPRPRPHPWPRP | 0.227
44 | RRIRPRPPRLPRPRPRPEYAPRP | 0.0857
45 | RRIRARPPRLPRPRPRPQYFPRP | -0.153
46 | RRIRRRPPRLPRPRPRPVATPRP | 1.15
47 | RRIRCRPPRLPRPRPRPCALPRP | -0.213
48 | RRIRDRPPRLPRPRPRPEIIPRP | 0.0753
49 | RRIRKRPPRLPRPRPRPGQFPRP | 0.00171
50 | RRIRIRPPRLPRPRPRPYMLPRP | -0.916

Row | Sequence | shrunken log2 fold change
51 | RRIRHRPPRLPRPRPRPPDPPRP | 0.832
52 | RRIRNRPPRLPRPRPRPQKYPRP | 0.125
53 | RRIRNRPPRLPRPRPRPIKIPRP | -0.357
54 | RRIRPRPPRLPRPRPRPWILPRP | -0.451
55 | RRIRMRPPRLPRPRPRPDPMPRP | 0.501
56 | RRIRIRPPRLPRPRPRPYQCPRP | -0.349
57 | RRIRIRPPRLPRPRPRPNYWPRP | -0.728
58 | RRIRWRPPRLPRPRPRPQKVPRP | 0.166
59 | RRIRVRPPRLPRPRPRPRVVPRP | 0.2
60 | RRIRFRPPRLPRPRPRPIHRPRP | -0.0271
61 | RRIRKRPPRLPRPRPRPCNGPRP | -0.0184
62 | RRIRWRPPRLPRPRPRPYLAPRP | -0.211
63 | RRIRLRPPRLPRPRPRPCGEPRP | 0.122
64 | RRIRMRPPRLPRPRPRPACGPRP | 0.811
65 | RRIRDRPPRLPRPRPRPMPPPRP | 0.361
66 | RRIRDRPPRLPRPRPRPIPVPRP | -0.00774
67 | RRIRIRPPRLPRPRPRPPRCPRP | 0.0758
68 | RRIRPRPPRLPRPRPRPWVQPRP | 0.0127
69 | RRIRQRPPRLPRPRPRPGIVPRP | 0.0144
70 | RRIRDRPPRLPRPRPRPVTFPRP | -0.0135
71 | RRIRNRPPRLPRPRPRPDLFPRP | -0.00884
72 | RRIRVRPPRLPRPRPRPISCPRP | 0.0771
73 | RRIRARPPRLPRPRPRPQEDPRP | 0.124
74 | RRIRKRPPRLPRPRPRPLMQPRP | -0.134
75 | RRIRARPPRLPRPRPRPLGSPRP | 0.471

Row | Sequence | shrunken log2 fold change
76 | RRIRRRPPRLPRPRPRPPLPPRP | 1.06
77 | RRIRKRPPRLPRPRPRPTNNPRP | -0.2
78 | RRIRFRPPRLPRPRPRPLREPRP | 0.618
79 | RRIRIRPPRLPRPRPRPQKQPRP | -0.128
80 | RRIRFRPPRLPRPRPRPMLNPRP | -0.574
81 | RRIRKRPPRLPRPRPRPLNFPRP | 0.103
82 | RRIRVRPPRLPRPRPRPQKQPRP | -0.376
83 | RRIRARPPRLPRPRPRPSKQPRP | 0.0216
84 | RRIRARPPRLPRPRPRPETGPRP | 0.772
85 | RRIRWRPPRLPRPRPRPWLTPRP | -0.0976
86 | RRIRHRPPRLPRPRPRPPSKPRP | -0.122
87 | RRIRHRPPRLPRPRPRPNMGPRP | -0.0579
88 | RRIRMRPPRLPRPRPRPPAQPRP | 1.08
89 | RRIRDRPPRLPRPRPRPCPRPRP | -0.126
90 | RRIRERPPRLPRPRPRPENLPRP | -0.226
91 | RRIRQRPPRLPRPRPRPAWAPRP | 0.263
92 | RRIRKRPPRLPRPRPRPWWCPRP | 0.0624
93 | RRIRYRPPRLPRPRPRPRLWPRP | 0.14
94 | RRIRLRPPRLPRPRPRPCMPPRP | -0.579
95 | RRIRCRPPRLPRPRPRPKYIPRP | -0.828
96 | RRIRNRPPRLPRPRPRPFYQPRP | -0.8
97 | RRIRKRPPRLPRPRPRPMTHPRP | -0.00695
98 | RRIRCRPPRLPRPRPRPQAIPRP | -0.205
99 | RRIRKRPPRLPRPRPRPKWMPRP | -0.168
100 | RRIRHRPPRLPRPRPRPVTFPRP | 0.00537

Row | Sequence | shrunken log2 fold change
101 | RRIRIRPPRLPRPRPRPMYRPRP | -0.0946
102 | RRIRGRPPRLPRPRPRPDNVPRP | -0.011
103 | RRIRFRPPRLPRPRPRPRWYPRP | -0.351
104 | RRIRFRPPRLPRPRPRPVHLPRP | -0.0117
105 | RRIRLRPPRLPRPRPRPPKKPRP | 0.265
106 | RRIRMRPPRLPRPRPRPLSVPRP | 0.401
107 | RRIRDRPPRLPRPRPRPRKDPRP | -0.108
108 | RRIRLRPPRLPRPRPRPFQPPRP | 0.113
109 | RRIRNRPPRLPRPRPRPYWVPRP | -0.134
110 | RRIRKRPPRLPRPRPRPCYNPRP | -0.428
111 | RRIRRRPPRLPRPRPRPIMWPRP | 0.121
112 | RRIRKRPPRLPRPRPRPVWEPRP | 0.391
113 | RRIRNRPPRLPRPRPRPWASPRP | 0.00581
114 | RRIRRRPPRLPRPRPRPVREPRP | 0.0195
115 | RRIRIRPPRLPRPRPRPFCEPRP | -0.23
116 | RRIRMRPPRLPRPRPRPPTFPRP | 0.122
117 | RRIRARPPRLPRPRPRPHTPPRP | 0.152
118 | RRIRFRPPRLPRPRPRPWVDPRP | -0.608
119 | RRIRYRPPRLPRPRPRPDNGPRP | -0.00114
120 | RRIRIRPPRLPRPRPRPMTQPRP | 0.0472
121 | RRIRIRPPRLPRPRPRPPNYPRP | -0.923
122 | RRIRERPPRLPRPRPRPTQNPRP | 0.262
123 | RRIRDRPPRLPRPRPRPTAIPRP | 0.394
124 | RRIRKRPPRLPRPRPRPGMIPRP | -0.0362
125 | RRIRTRPPRLPRPRPRPGKCPRP | 0.0114

Row | Sequence | shrunken log2 fold change
126 | RRIRYRPPRLPRPRPRPDPMPRP | -0.0159
127 | RRIRYRPPRLPRPRPRPQPHPRP | -0.348
128 | RRIRQRPPRLPRPRPRPSLKPRP | -0.235
129 | RRIRGRPPRLPRPRPRPVFFPRP | 0.888
130 | RRIRLRPPRLPRPRPRPVLEPRP | -0.335
131 | RRIRRRPPRLPRPRPRPQIKPRP | -0.155
132 | RRIRVRPPRLPRPRPRPFAPPRP | 0.0601
133 | RRIRPRPPRLPRPRPRPQTYPRP | -0.256
134 | RRIRWRPPRLPRPRPRPQDFPRP | 0.203
135 | RRIRVRPPRLPRPRPRPNVDPRP | -0.0826
136 | RRIRTRPPRLPRPRPRPFRYPRP | -0.0915
137 | RRIRCRPPRLPRPRPRPVWYPRP | -0.184
138 | RRIRCRPPRLPRPRPRPAGKPRP | 0.0831
139 | RRIRIRPPRLPRPRPRPGQYPRP | -0.221
140 | RRIRIRPPRLPRPRPRPCTMPRP | -0.0242
141 | RRIRARPPRLPRPRPRPEIPPRP | 0.3
142 | RRIRTRPPRLPRPRPRPTIMPRP | -0.597
143 | RRIRGRPPRLPRPRPRPDSKPRP | 0.125
144 | RRIRERPPRLPRPRPRPVSSPRP | -0.215
145 | RRIRMRPPRLPRPRPRPECDPRP | 2.82
146 | RRIRPRPPRLPRPRPRPEGEPRP | 0.302
147 | RRIRFRPPRLPRPRPRPQNHPRP | -0.619
148 | RRIRQRPPRLPRPRPRPRTEPRP | 2.94
149 | RRIRKRPPRLPRPRPRPCLTPRP | -0.0179
150 | RRIRHRPPRLPRPRPRPGCAPRP | 0.124
